The values that follow are results of earlier work, collected in US20260007686A1, “COMPOSITIONS AND METHODS FOR IMPROVING VISION” (Ripple Therapeutics Corporation, priority 2022, published 2026).

Series [1] has as its system macular edema in individuals with diabetic macular edema (DME). As to conditions: literature studies (Boyer et al.; Callanan et al.).
The test system of series [2] is visual acuity of individuals with diabetic macular edema (DME). As to conditions: literature studies (Boyer et al.; Callanan et al.).

B1: ranibizumab (antibody, chains of the INN, looked up, V domains shown)
VH: EVQLVESGGGLVQPGGSLRLSCAASGYDFTHYGMNWVRQAPGKGLEWVGWINTYTGEPTYAADFKRRFTFSLDTSKSTAYLQMNSLRAEDTAVYYCAKYPYYYGTSHWYFDVWGQGTLVTVSS
VL: DIQLTQSPSSLSASVGDRVTITCSASQDISNYLNWYQQKPGKAPKVLIYFTSSLHSGVPSRFSGSGSGTDFTLTISSLQPEDFATYYCQQYSTVPWTFGQGTKVEIK
modifications: Fab
notes: ranibizumab injection, a clinically approved anti-VEGF intravitreal injection
For B1, the “Mean Change in CST at M3” value in series [1] (month 3) is reported as −140 μm. Besides, the “Mean Change in CST at M6” value in series [1] (month 6) was −133 μm. For the same molecule, in series [2] (month 3), the “Mean Change in BCVA at M3” value is reported as “+6 letters”. For the same molecule, the “Mean Change in BCVA at M6” value in series [2] (month 6) is on record as “+8 letters”.
